Reference: publication PMC7950211 (2021)

Key:
Experiment in all cases: SPR
[1] = target: T1, PF3D7_0721100, P. falciparum predicted secreted protein, recombinant (P. falciparum, biotin (enzymatic monobiotinylation))
T1 chain: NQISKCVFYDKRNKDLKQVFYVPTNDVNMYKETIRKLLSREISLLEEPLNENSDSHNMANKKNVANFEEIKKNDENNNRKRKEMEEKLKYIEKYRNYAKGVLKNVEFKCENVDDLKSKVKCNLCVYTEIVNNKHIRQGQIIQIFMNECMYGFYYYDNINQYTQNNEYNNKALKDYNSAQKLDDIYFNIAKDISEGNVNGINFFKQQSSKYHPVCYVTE

[2] = target: T2, parasite-infected erythrocyte surface protein 15 (PIESP15), P. falciparum, recombinant ectodomain (P. falciparum, biotin (enzymatic monobiotinylation of the bait form))
T2 chain: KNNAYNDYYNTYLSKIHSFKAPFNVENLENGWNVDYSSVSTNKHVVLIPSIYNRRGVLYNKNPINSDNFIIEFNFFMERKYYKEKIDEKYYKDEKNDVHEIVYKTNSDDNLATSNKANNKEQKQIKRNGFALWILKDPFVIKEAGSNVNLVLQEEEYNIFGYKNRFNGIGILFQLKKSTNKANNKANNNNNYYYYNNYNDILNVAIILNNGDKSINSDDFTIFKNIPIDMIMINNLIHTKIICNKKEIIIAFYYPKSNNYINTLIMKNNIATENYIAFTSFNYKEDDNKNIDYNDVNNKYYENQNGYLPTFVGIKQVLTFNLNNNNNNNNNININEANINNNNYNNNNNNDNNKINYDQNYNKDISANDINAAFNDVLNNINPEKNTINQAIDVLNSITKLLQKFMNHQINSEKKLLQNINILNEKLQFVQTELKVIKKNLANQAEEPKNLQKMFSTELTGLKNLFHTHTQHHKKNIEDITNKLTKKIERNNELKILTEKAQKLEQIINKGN

[3] = target: T3, PF3D7_0526900, P. falciparum p24 family protein, recombinant ectodomain (P. falciparum, biotin (enzymatic monobiotinylation of the bait form))
T3 chain: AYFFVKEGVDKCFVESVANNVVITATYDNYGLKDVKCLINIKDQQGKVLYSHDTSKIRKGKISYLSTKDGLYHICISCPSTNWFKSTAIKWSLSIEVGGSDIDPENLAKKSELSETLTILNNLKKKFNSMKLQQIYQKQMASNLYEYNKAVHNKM

B1: CelTOS, P. falciparum, recombinant (natural protein)
chain: FRGNNGHNSASSLYNGAQFIEQLNNAFTSAFLESQSMNKIGDDLAETISNELVSVLQKNSPTFLESSFDIKSEVKKHAKSMLKELIKVGLPSFENLVAENVKPPKVDPATYGIIVPVLTSLFNKVETAVGAKVSDEIWNYNSPDVSESEESLSDDFFD
modifications: biotin (enzymatic monobiotinylation of the bait form)
- koff [1]: 0.025 s⁻¹

B2: PF3D7_0702900, P. falciparum secreted protein with tandem EF-hand domains, recombinant (natural protein)
chain: QDNKNKVEETHEEQGEMTQEEKDEIYSEFVDYDLNKDGLIDAEEIVVTLKNMKKADFINFFNKVDLDSSGTISIDEYMLFINSN
modifications: biotin (enzymatic monobiotinylation of the bait form)
- koff [2]: 0.035 s⁻¹

B3: PF3D7_0422100, P. falciparum p24 family protein, recombinant ectodomain (domain or fragment)
chain: NFVLSNANTNNVNKNGANKKNNANNNNMNKAGDKKKATKGKKGNANDNVNEFNFNFNDLLNEINNAATNDNNNNNNDNNNDNNNNNNNNNNNYNGKNEINENNFNEEYNKLEKNFQMNAEDDDNNRGDINMDQFNEKKNNLNEDNNKMKPNANDYQYNENDADTDSEEDLTNIWNKNMQNFEPSTLLTFEIPSNSEEYLFEEVPEVNTYFRGVFYSNNEADDNIIEFLISDPDGQVIYKKEASEGIFYFYTKKVGIYTLTLKNNKWMGKKLTTVALGLGENPSLRSDHVKDFTNYIQRIVAETKKLKNEIKYLSSKHMRHIEKMKKITNK
modifications: biotin (enzymatic monobiotinylation of the bait form)
- koff [3]: 0.23 s⁻¹
